Measurements taken from paper PMC12014896 (2025).

B1: COVIC-332 (antibody, V domains shown)
VH: QVQLVQSGAEVKKPGSSLKVSCKASGGTFNNFAISWVRQAPGQGPEWMGRINPILSAAKYAQKFQGRLTITADKSTTTAYMELSSLRSEDTAVYYCAPTGTGESWWFDPWGQGTLVTVSS
VL: QSVLTQPPSASGTPGQRVTISCSGSSSNIGTNYVYWYQQLPGTAPKVLIYGNNQRPSGVPDRFSGSKSGSSASLAISGLRSEDEADYYCAAWDDSLSGPVFGGGTKLTVL
B2: COVIC-126 (antibody)
chain 1: QVQLQESGGGLVQAGGSLRLSCAASGRTFSEYAMGWFRQAPGKEREFVATISWSGGSTYYTDSVKGRFTISRDNAKNTVYLQMNSLKPDDTAVYYCAAAGLGTVVSEWDYDYDYWGQGTQVTVSSGGSGGSQVQLQESGGGLVQAGGSLRLSCAASGRTFSEYAMGWFRQAPGKEREFVATISWSGGSTYYTDSVKGRFTISRDNAKNTVYLQMNSLKPDDTAVYYCAAAGLGTVVSEWDYDYDYWGQGTQVTVSSGGGGSGGGGSASTKGPSVFPLAPSSKSTSGGTAALGCLVKDYFPEPVTVSWNSGALTSGVHTFPAVLQSSGLYSLSSVVTVPSSSLGTQTYICNVNHKPSNTKVDKKVEPKSCDKTHTKKKPLDGEYFTLQIRGRERFEMFRELNEALELKDAQAGKEPGGGGGSGGGGSQVQLQESGGGLVQAGGSLRLSCAASGRTFSEYAMGWFRQAPGKEREFVATISWSGGSTYYTDSVKGRFTISRDNAKNTVYLQMNSLKPDDTAVYYCAAAGLGTVVSEWDYDYDYWGQGTQVTVSSGGSGGSQVQLQESGGGLVQAGGSLRLSCAASGRTFSEYAMGWFRQAPGKEREFVATISWSGGSTYYTDSVKGRFTISRDNAKNTVYLQMNSLKPDDTAVYYCAAAGLGTVVSEWDYDYDYWGQGTQVTVSS
chain 2: QVQLQESGGGLVQAGGSLRLSCAASGRTFSEYAMGWFRQAPGKEREFVATISWSGGSTYYTDSVKGRFTISRDNAKNTVYLQMNSLKPDDTAVYYCAAAGLGTVVSEWDYDYDYWGQGTQVTVSSGGSGGSQVQLQESGGGLVQAGGSLRLSCAASGRTFSEYAMGWFRQAPGKEREFVATISWSGGSTYYTDSVKGRFTISRDNAKNTVYLQMNSLKPDDTAVYYCAAAGLGTVVSEWDYDYDYWGQGTQVTVSSGGGGSGGGGSKRTVAAPSVFIFPPSDEQLKSGTASVVCLLNNFYPREAKVQWKVDNALQSGNSQESVTEQDSKDSTYSLSSTLTLSKADYEKHKVYACEVTHQGLSSPVTKSFNRGEC
B3: COVIC-119 (antibody)
chain 1: QVQLQESGGGLVQAGGSLRLSCAASGRTFSEYAMGWFRQAPGKEREFVATISWSGGSTYYTDSVKGRFTISRDNAKNTVYLQMNSLKPDDTAVYYCAAAGLGTVVSEWDYDYDYWGQGTQVTVSSGGSGGSQVQLQESGGGLVQAGGSLRLSCAASGRTFSEYAMGWFRQAPGKEREFVATISWSGGSTYYTDSVKGRFTISRDNAKNTVYLQMNSLKPDDTAVYYCAAAGLGTVVSEWDYDYDYWGQGTQVTVSSGGGGSGGGGSASTKGPSVFPLAPSSKSTSGGTAALGCLVKDYFPEPVTVSWNSGALTSGVHTFPAVLQSSGLYSLSSVVTVPSSSLGTQTYICNVNHKPSNTKVDKKVEPKSCDKTHTKKKPLDGEYFTLQIRGRERFEMFRELNEALELKDAQAGKEPG
chain 2: QVQLQESGGGLVQAGGSLRLSCAASGRTFSEYAMGWFRQAPGKEREFVATISWSGGSTYYTDSVKGRFTISRDNAKNTVYLQMNSLKPDDTAVYYCAAAGLGTVVSEWDYDYDYWGQGTQVTVSSGGSGGSQVQLQESGGGLVQAGGSLRLSCAASGRTFSEYAMGWFRQAPGKEREFVATISWSGGSTYYTDSVKGRFTISRDNAKNTVYLQMNSLKPDDTAVYYCAAAGLGTVVSEWDYDYDYWGQGTQVTVSSGGGGSGGGGSKRTVAAPSVFIFPPSDEQLKSGTASVVCLLNNFYPREAKVQWKVDNALQSGNSQESVTEQDSKDSTYSLSSTLTLSKADYEKHKVYACEVTHQGLSSPVTKSFNRGEC
B4: COVIC-35 (antibody, V domains shown)
VH: EVQLVESGGGVVQPGRSLRLSCAASGFTFSSYAMHWVRQAPGKGLEWVAVISYDGSYKYYADSVKGRFTISRDNSKNTLYLQMNSLTAEDTAVYYCAREGSRQWLVIYFDYWGQGTLVTVSS
VL: AIRMTQSPSSLSASVGDRVTITCRASQSISSYLNWYQQKPGKAPKLLIYAASSLQSGVPSRFSGSGSGTDFTLTISSLQPEDFATYYCQQSYTTFIYTFGQGTKLEIK
B5: COVIC-123 (antibody)
chain: QVQLQESGGGLVQAGGSLRLSCAASGRTFSEYAMGWFRQAPGKEREFVATISWSGGSTYYTDSVKGRFTISRDNAKNTVYLQMNSLKPDDTAVYYCAAAGLGTVVSEWDYDYDYWGQGTQVTVSSGGSGGSQVQLQESGGGLVQAGGSLRLSCAASGRTFSEYAMGWFRQAPGKEREFVATISWSGGSTYYTDSVKGRFTISRDNAKNTVYLQMNSLKPDDTAVYYCAAAGLGTVVSEWDYDYDYWGQGTQVTVSSGGGGSGGGGSEPKSCDKTHTCPPCPAPELLGGKKKPLDGEYFTLQIRGRERFEMFRELNEALELKDAQAGKEPGGGGGSGGGGSQVQLQESGGGLVQAGGSLRLSCAASGRTFSEYAMGWFRQAPGKEREFVATISWSGGSTYYTDSVKGRFTISRDNAKNTVYLQMNSLKPDDTAVYYCAAAGLGTVVSEWDYDYDYWGQGTQVTVSS
B6: COVIC-299 (antibody, V domains shown)
VH: EVQLVESGGGLVQPGGSLRLSCAASGLIVSRNYMSWVRQAPGKGLEWVSVIYSGGSTFYADSVKGRFTISRDNSKNTLYLQMNSLRAEDTAVYYCARDLNIAGGFDIWGQGTMVTVSS
VL: DIQLTQSPSFLSASVGDRVTITCRASQGISSYLAWYQQKPGKAPKLLIYAASTLQSGVPSRFSGSGSGTDFTLTISSLQPEDFATYYCQHLNIDPITFGQGTRLEIK
B7: COVIC-42 (antibody, V domains shown)
VH: EVQLVESGGGLIQPGGSLRLSCAASGVIVSSNYMSWVRQAPGKGLEWVSVIYSGGSTYYADSVKGRFTISRDNSKNTLYLQMNSLRAEDTAVYYCARDLDVSGGMDVWGQGTTVTVSS
VL: not shown
B8: COVIC-321 (antibody)
chain 1: not shown
chain 2: EVQLLESGGGLVQPGGSLRLSCAASGRTFSEYAMGWFRQAPGKGLEFVSTISWSGGSTYYADSVKGRFTISRDNSKNTLYLQMNSLRAEDTAVYYCAAAGLGTVVSEWDYDYDYWGQGTLVTVSSGGGGSGGGGSKRTVAAPSVFIFPPSDEQLKSGTASVVCLLNNFYPREAKVQWKVDNALQSGNSQESVTEQDSKDSTYSLSSTLTLSKADYEKHKVYACEVTHQGLSSPVTKSFNRGEC
B9: COVIC-21 (antibody, V domains shown)
VH: EVQLLESGGGLVQPGGSLRLSCAASGFTFSDFAMAWVRQAPGKGLEWVSAISGSGDITYYADSVKGRFTISRDNSKNTLYLQMNSLRAEDTAVYYCAREADGLHSPWHFDLWGQGTLVTVSS
B10: COVIC-61 (antibody)
chain: QVQLQESGGGLVQAGGSLRLSCAASGRTFSEYAMGWFRQAPGKEREFVATISWSGGSTYYTDSVKGRFTISRDNAKNTVYLQMNSLKPDDTAVYYCAAAGLGTVVSEWDYDYDYWGQGTQVTVSSGGSGGSQVQLQESGGGLVQAGGSLRLSCAASGRTFSEYAMGWFRQAPGKEREFVATISWSGGSTYYTDSVKGRFTISRDNAKNTVYLQMNSLKPDDTAVYYCAAAGLGTVVSEWDYDYDYWGQGTQVTVSSGGGGSGGGGSKKKPLDGEYFTLQIRGRERFEMFRELNEALELKDAQAGKEPG
B11: COVIC-307 (antibody, V domains shown)
VH: QVQLVQSGAEVKKPGSSVKVSCKASGGTFGISWVRQAPGQGLEWMGRIIPILGTANHAQKFQGRVTITADKSTGTVYMELSSLRSEDTAVYYCARDGDSGSYYETLGFDYWGQGTLVTVSS
VL: QSALTQPPSASGSPGQSVTISCTGTSSDVGGYNYVSWYQQHPGKAPKLMIYEVNKRPSGVPDRFSGSKSGNTASLTVSGLQAEDEADYYCSSYAGSNNLVFGGGTKLTVL
B12: COVIC-23 (antibody, V domains shown)
VH: EVQLLESGGGLVQPGGSLRLSCAASGFTFSNYPMNWVRQAPGKGLEWVSTISGSGGNTFYADSVKGRFTISRDNSKNTLYLQMNSLRAEDTAVYYCVRHDEYSFDYWGQGTLVTVSS
B13: COVIC-78 (antibody, V domains shown)
VH: QVQLVQSGAEVKKPGSSVKVSCKASGGTFSTSTFNWVRQAPGQGLEWMGGIIPIFGTVNYAQKFQGRVTITADESTGTAYMELSSLRSEDTAVYYCATLGQWDLLPRWGQGTLVTVSS
VL: KIVLTQSPDTLSLSPGERATLSCRASQSVDSNYLAWYQQKPGQAPRLLIYGASSRATGIPDRFSGSGSGTDFTLTISRLEPEDFAVYYCQQYGSSYTFGQGTKLEIK
B14: COVIC-337 (antibody, V domains shown)
VH: EVQLVQSGAEVKKPGSSVKVSCKASGGTFSMHTIRWVRQAPGQGLEWMGRIIPMLGIVNYAQKFQGRVTISADKSTSTAYMELSSLTSEDTAMYYCAKGSHDVFDIWGQGTMVTVSS
VL: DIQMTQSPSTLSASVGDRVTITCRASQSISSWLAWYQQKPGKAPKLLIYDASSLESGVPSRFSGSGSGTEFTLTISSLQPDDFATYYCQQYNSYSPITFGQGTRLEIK
B15: COVIC-152 (antibody, V domains shown)
VH: QVQLQESGPGLVKPSQTLSLTCTVSGGSISSYGYYWSWIRQHPGKGLEWIGYIYYSGSTYYNPSLKSRVTMSVDTSKNQLSLRLNSVSAADTAVYYCARDFGGNSNYFDYWGQGTLVTVSS
VL: AIQLTQSPSSLSASVGDRVTITCRASQGISSALAWYQQKPGKAPNLLIYDASSLESGVPSRFSGSGSGTDFTLTISSLQPEDFATYYCQQFNSSPLTFGGGTKVEIKR
B16: COVIC-266 (antibody, V domains shown)
VH: EVQLVESGGGLVQPGGSLRLSCKASGISVAPHAVTWVRQAPGKGLEWIGVIASNADTYYASWAKGRFTISRDNSKNTLYLQMNSLRAEDTAVYYCARHPGSAGYGYTYYYAMDPWGQGTLVTVSS
VL: DIQMTQSPSSLSASVGDRVTITCKASEDIRYGLNWYQQKPGKAPKLLIYGANTLEAGVPSRFSGSGSGTDFTLTISSLQPEDFATYYCQQGYSTPLTFGGGTKVEIK
B17: COVIC-362 (antibody, V domains shown)
VH: EVQLVESGGGLVQPGGSLRLSCKASGISVAPHAVTWVRQAPGKGLEWIGVIASNADTYYASWAKGRFTISRDNSKNTLYLQMNSLRAEDTAVYYCARHPGSAGYGYTYYYAMDPWGQGTLVTVSS
VL: DIQMTQSPSSLSASVGDRVTITCQASERVFYGIDWYQQKPGKAPKLLIYGASALWHGVPSRFSGSGSGTDYTLTISSLQPEDFATYYCQQGYMVPIGFGGGTKVEIK
B18: COVIC-386 (antibody, V domains shown)
VH: EVQLVESGGGLVQPGGSLRLSCKASGYSFRHQAMTWVRQAPGKGLEWIGVIASNADTYYASWAKGRFTISRDNSKNTLYLQMNSLRAEDTAVYYCARHPGSAGYGYTYYYAMDPWGQGTLVTVSS
VL: DIQMTQSPSSLSASVGDRVTITCQASERVFYGIDWYQQKPGKAPKLLIYGASALWHGVPSRFSGSGSGTDYTLTISSLQPEDFATYYCQQGYMVPIGFGGGTKVEIK

Target: SARS-CoV-2 spike RBD (Wuhan-Hu-1) (Severe acute respiratory syndrome …, UniProt P0DTC2)
Experiment: SPR

Question: B1 was tested. Which Kd did it give?
Answer: The Kd was 0.111 nM.

Question: With B2 as the binder, how does the Kd read?
Answer: The Kd was 139 nM.

Question: B3 was tested. Which Kd did it give?
Answer: The Kd was 179 nM.

Question: B4 was tested. Which Kd did it give?
Answer: Its Kd is 2.81 nM.

Question: Which Kd does the source give for B5 here?
Answer: The Kd was 206 nM.

Question: Which Kd does the source give for B6 here?
Answer: The Kd was 0.332 nM.

Question: With B7 as the binder, how does the Kd read?
Answer: Its Kd is 11 nM.

Question: Which Kd does the source give for B8 here?
Answer: Its Kd is 30 nM.

Question: B9 was tested. Which Kd did it give?
Answer: The Kd was 0.208 nM.

Question: How did the Kd turn out when B10 was run?
Answer: Its Kd is 195 nM.

Question: For B11, which Kd is on record?
Answer: Its Kd is 2.36 nM.

Question: With B12 as the binder, how does the Kd read?
Answer: Its Kd is 71.3 nM.

Question: Which Kd does the source give for B13 here?
Answer: The Kd was 393 nM.

Question: With B14 as the binder, how does the Kd read?
Answer: Its Kd is 3.02 nM.

Question: Which Kd does the source give for B15 here?
Answer: The Kd was 3.02 nM.

Question: How did the Kd turn out when B16 was run?
Answer: The Kd was 2.41 nM.

Question: Which Kd does the source give for B17 here?
Answer: Its Kd is 0.00985 nM.

Question: For B18, which Kd is on record?
Answer: The Kd was 0.177 nM.
